Measured values as given in publication PMC10786891, “Massively parallel profiling of RNA-targeting CRISPR-Cas13d”.
Positions count from the first letter of the chain named. Names and notes keep the numbering of the source.

T1: EsCas13d, nuclease-dead (Eubacterium siraeum, UniProt B0MS50, R295A;H300A;R849A;H854A)
T1 sequence: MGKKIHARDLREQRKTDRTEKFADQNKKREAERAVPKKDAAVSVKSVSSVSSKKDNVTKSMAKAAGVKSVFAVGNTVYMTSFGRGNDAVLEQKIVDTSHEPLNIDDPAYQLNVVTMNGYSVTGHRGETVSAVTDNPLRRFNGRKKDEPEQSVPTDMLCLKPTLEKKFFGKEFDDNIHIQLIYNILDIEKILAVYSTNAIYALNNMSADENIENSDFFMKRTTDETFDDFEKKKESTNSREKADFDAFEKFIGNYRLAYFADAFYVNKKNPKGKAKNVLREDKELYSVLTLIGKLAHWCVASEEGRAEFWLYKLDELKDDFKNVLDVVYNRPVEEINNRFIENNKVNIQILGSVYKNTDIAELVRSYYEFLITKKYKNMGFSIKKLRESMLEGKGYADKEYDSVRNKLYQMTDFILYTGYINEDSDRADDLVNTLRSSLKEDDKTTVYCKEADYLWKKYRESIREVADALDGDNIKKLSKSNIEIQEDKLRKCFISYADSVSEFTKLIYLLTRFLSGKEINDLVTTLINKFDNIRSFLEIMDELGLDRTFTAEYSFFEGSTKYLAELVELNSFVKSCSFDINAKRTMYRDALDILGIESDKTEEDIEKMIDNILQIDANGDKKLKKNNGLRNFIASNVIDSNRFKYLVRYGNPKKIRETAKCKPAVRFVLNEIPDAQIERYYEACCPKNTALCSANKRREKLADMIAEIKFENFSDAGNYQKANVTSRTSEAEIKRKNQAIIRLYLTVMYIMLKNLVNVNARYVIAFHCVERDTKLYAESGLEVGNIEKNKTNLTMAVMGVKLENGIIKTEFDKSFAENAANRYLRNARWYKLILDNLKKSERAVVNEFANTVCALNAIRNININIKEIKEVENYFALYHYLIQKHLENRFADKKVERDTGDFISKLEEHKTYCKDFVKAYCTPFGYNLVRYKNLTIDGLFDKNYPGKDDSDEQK

B1: target 1 A9G,G13A (mixed)
RNA 1: CACCCGUGCAAAAAUGCAGGGGUCUAAAACUGAGCGGAUAACCUCUCUAUGG
RNA 2: GGGAAUGGAUCCACAUCUACGAAUUCGUACCAUAGAGAAGUUGUCCGCUCACCGAGAUCGGAAGAGCACACGU
B2: target 1 C6U,U10G (mixed)
RNA 1: B1 RNA 1
RNA 2: B1 RNA 2 with A39G, U42G, G43A, C46U
B3: target 1 G13U,A20C (mixed)
RNA 1: B1 RNA 1
RNA 2: B1 RNA 2 with A32C, A39U, G43A
B4: target 1 C4U,U11G (mixed)
RNA 1: B1 RNA 1
RNA 2: B1 RNA 2 with A39G, U41G, G43A, C48U
B5: target 1 G5U,U10G (mixed)
RNA 1: B1 RNA 1
RNA 2: B1 RNA 2 with A39G, U42G, G43A, G47U
B6: target 1 A1G,G12A (mixed)
RNA 1: B1 RNA 1
RNA 2: B1 RNA 2 with A39G, G40A, G43A, A51G
B7: target 1 insG 3' of 16,insG 3' of 7 (mixed)
RNA 1: B1 RNA 1
RNA 2: GGGAAUGGAUCCACAUCUACGAAUUCGUACCAUAGAGGAGGUUAUCGCGCUCACCGAGAUCGGAAGAGCACACGU
B8: target 1 insG 3' of 10,insA 3' of 6 (mixed)
RNA 1: B1 RNA 1
RNA 2: B7 RNA 2 with G38A, A39G, G41U, U43G, G47C, C48A
B9: target 1 C2A,G17C (mixed)
RNA 1: B1 RNA 1
RNA 2: B1 RNA 2 with G35C, A39G, G43A, C50A
B10: target 1 C4A,A9G (mixed)
RNA 1: B1 RNA 1
RNA 2: B1 RNA 2 with A39G, C48A
B11: target 1 G12U (mixed)
RNA 1: B1 RNA 1
RNA 2: B1 RNA 2 with A39G, G40U, G43A
B12: target 1 insA 3' of 5,insG 3' of 3 (mixed)
RNA 1: B1 RNA 1
RNA 2: GGGAAUGGAUCCACAUCUACGAAUUCGUACCAUAGAGAGGUUAUCCGACUGCACCGAGAUCGGAAGAGCACACGU
B13: target 1 C7A,U19G (mixed)
RNA 1: B1 RNA 1
RNA 2: B1 RNA 2 with U33G, A39G, G43A, C45A
B14: target 1 insA 3' of 15 (mixed)
RNA 1: B1 RNA 1
RNA 2: GGGAAUGGAUCCACAUCUACGAAUUCGUACCAUAGAGAAGGUUAUCCGCUCACCGAGAUCGGAAGAGCACACGU
B15: target 1 G12A (mixed)
RNA 1: B1 RNA 1
RNA 2: B1 RNA 2 with A39G, G40A, G43A
B16: target 1 A1U,G12A (mixed)
RNA 1: B1 RNA 1
RNA 2: B1 RNA 2 with A39G, G40A, G43A, A51U
B17: target 1 A1G,G12U (mixed)
RNA 1: B1 RNA 1
RNA 2: B1 RNA 2 with A39G, G40U, G43A, A51G
B18: target 1 insU 3' of 9,insU 3' of 9 (mixed)
RNA 1: B1 RNA 1
RNA 2: B12 RNA 2 with C45U, C46U, G47C, A48C, C49G, U50C, G51U
B19: target 1 A1C,G12U (mixed)
RNA 1: B1 RNA 1
RNA 2: B1 RNA 2 with A39G, G40U, G43A, A51C
B20: target 1 insC 3' of 3,insC 3' of 3 (mixed)
RNA 1: B1 RNA 1
RNA 2: B12 RNA 2 with A48C, C49U, U50C, G51C
B21: target 1 C6G,G15U (mixed)
RNA 1: B1 RNA 1
RNA 2: B1 RNA 2 with G37U, A39G, G43A, C46G
B22: target 1 insU 3' of 21,insU 3' of 14 (mixed)
RNA 1: B1 RNA 1
RNA 2: GGGAAUGGAUCCACAUCUACGAAUUCGUACCUAUAGAGAUGGUUAUCCGCUCACCGAGAUCGGAAGAGCACACGU
B23: target 1 insC 3' of 17,insA 3' of 8 (mixed)
RNA 1: B1 RNA 1
RNA 2: B7 RNA 2 with A36C, G37A, C46A, G47C
B24: target 1 C7A,A20C (mixed)
RNA 1: B1 RNA 1
RNA 2: B1 RNA 2 with A32C, A39G, G43A, C45A
B25: target 1 insU 3' of 7,insU 3' of 6 (mixed)
RNA 1: B1 RNA 1
RNA 2: B12 RNA 2 with C46U, G47C, A48U, C49G, U50C, G51U
B26: target 1 insG 3' of 18,insA 3' of 7 (mixed)
RNA 1: B1 RNA 1
RNA 2: B7 RNA 2 with A36G, G37A, G47A
B27: target 1 insC 3' of 14,insU 3' of 12 (mixed)
RNA 1: B1 RNA 1
RNA 2: B7 RNA 2 with G38A, A39C, A44U, U45A, C46U, G47C
B28: target 1 insU 3' of 15,insC 3' of 15 (mixed)
RNA 1: B1 RNA 1
RNA 2: B7 RNA 2 with G38U, A39C, G40A, U42G, A44U, U45A, C46U, G47C
B29: target 1 insG 3' of 8,insU 3' of 6 (mixed)
RNA 1: B1 RNA 1
RNA 2: B12 RNA 2 with C45G, G47C, A48U, C49G, U50C, G51U

Target: T1, EsCas13d, nuclease-dead
Test: crRNA (strand 1, pre-loaded); Mg2+; 40 mM Tris-HCl pH 7.5, 150 mM NaCl, 6 mM MgCl2, 1 mM DTT, 0.1% Tween-20, 0.2 mg/ml BSA; 25 C; 10 min per concentration, then washed
Settings: tags: His6-TwinStrep-SUMO cleaved; N-terminal SNAP kept (SNAP-Surface 488); label: 3' end held by stalled T7 RNA polymerase

Binder | Kd [nM]
B1 | 8.4 ± 0.4
B2 | 15.7 ± 1.1
B3 | ~90
B4 | 21 ± 4
B5 | 57 ± 5
B6 | 5.9 ± 0.5
B7 | 16.5 ± 1.7
B8 | 41 ± 6
B9 | 57 ± 5
B10 | 3.18 ± 0.24
B11 | 10.3 ± 0.5
B12 | 5.94 ± 0.29
B13 | 55 ± 6
B14 | 5.9 ± 0.6
B15 | 5.5 ± 0.4
B16 | 5.2 ± 0.5
B17 | 9.4 ± 0.6
B18 | 18.8 ± 1
B19 | 13.9 ± 2.1
B20 | 43 ± 15
B21 | 36 ± 5
B22 | 45 ± 9
B23 | 52 ± 7
B24 | 61 ± 22
B25 | 55 ± 4
B26 | 43 ± 4
B27 | 43 ± 9
B28 | 28.4 ± 3.2
B29 | 16.5 ± 0.6
